Measured values: PMC2845083

Molecular target: 6xHis-hKNL1 fragment (amino acids 1-86), Ser-Asp phospho-mimetic mutations in the SILK and RVSF motifs (human) (UniProt Q8NG31)
Assay: pull-down

reduction of binding against wild type: > 70%
Substance: recombinant hPP1γ (protein phosphatase 1 gamma catalytic subunit) (from UniProt P36873 1-323) (enzyme)
